Patent publication US20190092852A1

Key:
[1] = biological target: T1, human IL-33 (R&D Systems, #3625-IL-010/CF) (human) (UniProt O95760); assay: SPR Biacore T200, 37 C
T1 sequence (looked up): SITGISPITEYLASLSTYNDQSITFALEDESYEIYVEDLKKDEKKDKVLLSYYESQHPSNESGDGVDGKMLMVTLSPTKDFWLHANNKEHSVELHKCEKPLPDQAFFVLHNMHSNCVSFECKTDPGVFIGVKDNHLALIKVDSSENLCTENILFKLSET

[2] = biological target: T1, human IL-33 (R&D Systems, #3625-IL-010/CF) (human); assay: SPR Biacore T200, 25 C
[3] = biological target: T2, biotinylated human IL-33 (human) (UniProt O95760); assay: competitive ELISA, biotin-huIL-33 to coated hST2-Fc
T2 sequence (biotin-labeled with EZ-LINK NHS-PEG4-Biotin, looked up): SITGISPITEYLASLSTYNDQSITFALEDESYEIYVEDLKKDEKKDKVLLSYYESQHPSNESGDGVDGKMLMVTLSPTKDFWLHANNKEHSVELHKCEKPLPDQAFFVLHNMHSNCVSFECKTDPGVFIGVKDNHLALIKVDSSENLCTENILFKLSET

[4] = biological target: T1, human IL-33 (R&D Systems, #3625-IL-010/CF) (human)
[5] = biological target: T1, human IL-33 (R&D Systems, #3625-IL-010/CF) (human); remark: listed apart in the source
[6] = biological target: T1, human IL-33 (R&D Systems, #3625-IL-010/CF) (human); remark: listed apart in the source
[7] = biological target: T1, human IL-33 (R&D Systems, #3625-IL-010/CF) (human); remark: listed apart in the source
[8] = biological target: T1, human IL-33 (R&D Systems, #3625-IL-010/CF) (human); remark: listed apart in the source
[9] = biological target: T1, human IL-33 (R&D Systems, #3625-IL-010/CF) (human); remark: listed apart in the source
[10] = biological target: T1, human IL-33 (R&D Systems, #3625-IL-010/CF) (human); assay: cell-based or functional assay

Binder	Kd [1] [nM]	koff [1] [s⁻¹]	kon [1] [M⁻¹ s⁻¹]	t1/2 [1] [min]	Kd [2] [nM]	koff [2] [s⁻¹]	kon [2] [M⁻¹ s⁻¹]	t1/2 [2] [min]	IC50 [3] [nM]	Maximum Blocking [3] [%]	IC50; SEAP reporter (OD 620), HEK-BLUE IL-33/IL-1beta cells, 10 pM hIL-33 [4] [M]	IC50; IFN-gamma ELISA, primary human NK cells, 260 pM hIL-33 + IL-12 [5] [M]	Ph-p38 MFI at 2 nM Ab (500 pM human IL-33, primary basophils) [6] [MFI]	Ph-p38 MFI at 0.4 nM Ab (500 pM human IL-33, primary basophils) [7] [MFI]	IC50 (read off the curve) [8] [nM]	IC50, IL-33-induced phospho-p38 in primary human basophils, 500 pM hIL-33 [9] [M]	HEK-BLUE SEAP reporter IC50 [10] [nM]	IFN-γ secretion from primary NK cells, IC50 [10] [nM]	phospho-p38 in primary basophils, IC50 [10] [nM]
H4H9663P (antibody, from another filing, IgG4, V domains shown) VH: QVQLVQSGAEVKKPGASVKVSCKASGYTFTGHYMYWMRQAPGQGLEWMGWINPNSGGTNYAQKFQDRVTMTRDTSISTAYMELSRLRSDDTAVYYCARGRYGSSWYGGFEYWGQGTLVTVSS VL: DIQMTQSPSSVSASVGDRVTITCRASQGITSWLAWYQQKPGKAPNLLIYAAASLQSGVPSRFSGSGSGTDFTLTISSLQPEDFTTYYCQQAYSLPLTFGGGTKVEIK	0.517	0.00161	3.11e+06	7	0.558	0.000937	1.68e+06	12	0.44	82	1.5e-09	4.6e-09	80	123					
H4H9670P (antibody, from another filing, IgG4, V domains shown) VH: EVQLVESGGGLVQPGGSLRLSCAASGFTLSSYAMSWVRQAPGKGLEWVSAISGSGGSTYYADSVKGRFTISRDNSKNSLYLQLNSLRAEDTAVYYCAKTLYTTSWYGGFQHWGQGTLVTVSS VL: DIQMTQSPSSVSASIGDRVTITCRASQGISSWLAWYQQKPGKVPKLLIYAASSLQSGFPSRFSGSGSGTDFTLTISSLQPEDFATYYCQQTHSFPWTVGQGTKVEIK	0.519	0.000663	1.28e+06	17	0.761	0.000517	680000	22	0.42	80	2.6e-09		90	118					
H4H9672P (antibody, from another filing, IgG4, V domains shown) VH: EVQLVESGGGLVQPGGSLRLSCAASGFTLRSYVMYWVRQGPGKGLEGVSGISGSSGGTYYTDSVKGRFTISRDNSKNTLFLQMNSLRAEDTAVYFCARSVYSTTWYGGFQHWGQGTLVTVSS VL: DIQMTQSPSSVSVSVGDRVTITCRASQVISSWLAWYQLKPGKAPKLLIYAASSLQSGVPSRFSGSGSGTDFTLTISGLQPEDFAVYYCQQTNSFPLTFGGGTKVEIK	0.531	0.00127	2.39e+06	9	0.839	0.000806	960000	14	0.22	77	9.8e-10		61	113	0.0006	5.7e-13			
H4H9662P (antibody, from another filing, IgG4, V domains shown) VH: EVQLVESGGGLVQPGGSLRLSCAASGFTFSSYALTWVRQAPGKGLEWVSFISGSGGRPFYADSVKGRFTISRDNSKNMLYLQMNSLRAEDTAIYYCAKSLYTTSWYGGFDSWGQGTLVTVSS VL: DIQMTQSPSSVSASVGDRVTITCRASQGVVSWLAWYQQKPGKAPKLLIYAASSLQSGVPSRFSGSGSGTDFTLTISSLQPEDFATYYCQQSNSFPFTLGPGTKVDIK	0.242	0.000566	2.34e+06	20	0.527	0.000459	871000	25	0.25	85	1.5e-10	1.2e-09	44	86		2.5e-09			
H4H9665P (antibody, from another filing, IgG4, V domains shown) VH: EVQLVESGGGLVQPGGSLRLSCAASGFTFSNYAMTWVRQAPGKGLEWVSTISGSGDNTYYADSVQGRFTISRGHSKNTLYLQMNSLRAEDTAVYYCAKPTYSRSWYGAFDFWGQGTMVTVSS VL: DIQMTQSPSSVSASVGDRVTITCRASQGISSWLAWYQQKPGKAPQLLIYAASRLQSGVPSRFWGSGSGTDFTLTISSLQPEDFATYYCQQANNFPFTFGPGTKVDIK	1	0.00235	2.35e+06	5	1.25	0.00116	931000	10	0.7	63	1.1e-09		105	106		2.4e-09			
H4H9675P (antibody, from another filing, IgG4, V domains shown) VH: EVQLVESGGNLEQPGGSLRLSCTASGFTFSRSAMNWVRRAPGKGLEWVSGISGSGGRTYYADSVKGRFTISRDNSKNTLYLQMNSLSAEDTAAYYCAKDSYTTSWYGGMDVWGHGTTVTVSS VL: DIQMTQSPSSVSASVGDRVTITCRASQGIFSWLAWYQQKPGKAPKLLIYAASSLQSGVPSRFSGSGSGTDFTLTISSLQPEDFAIYYCQQANSVPITFGQGTRLEIK	0.192	0.000779	4.06e+06	15	0.391	0.000637	1.63e+06	18	0.063	84			30	48		3.5e-13	0.011	0.097	0.00038
H4H9664P (antibody, from another filing, IgG4, V domains shown) VH: QVQLVESGGGVVQPGRSLRLSCAASGFTFSSYGLHWVRQSPGKGLEWVALISYDGSNKYYADSVKGRFTISRDNSKNTLYLQMNSLRPEDTAGYFCAKSLYTTSWYGGFDYWGQGTLVTVSS VL: DIQMTQSPSSVSASVGDRVTITCRASQGIRSWLAWYQQKPGKAPNLLIYAASSLQSGVPSRFSGSGSGTDFTLTISSLQPEDFATYYCQQANSFPPTFGPGTKVDIK	0.674	0.000531	789000	22	1.31	0.000445	339000	26	0.19	87	1.5e-10		40	63					0.00014
H4H9666P (antibody, from another filing, IgG4, V domains shown) VH: QVQLVQSGAEVKKPGASVKVSCKASGYTFTSYGISWVRQAPGQGLEWMGWIRAYNGYTNYAQKFQGRVTMTTDTSTNTAYMELRTLNSDDTAVYYCARDRYSGSFHGNFDYWGQGTLVTVSS VL: DIQMTQSPSSVSASVGDRVTITCRASQGIFSWLAWYQQKPGKAPKVLIYAASNLESGVPSRFSGSGSGTDFTLTISSLQPEDFATYYCQQANSLPLTFGGGTKVEIK	0.934	0.00158	1.69e+06	7	1.74	0.00115	665000	10	0.21	81	7.1e-10	1e-08	71	90		7.6e-06			
H4H9671P (antibody, from another filing, IgG4, V domains shown) VH: EVQLVESGGGLVQPGGSLRLSCAASGFTLRSYFMTWVRQVPGKGLEGVSAISGISGGTYYTDSVKGRFTISRDNSKNTLFLQMNSLRAEDTAVYFCARTVYSSSYYGGFQHWGQGTLVTVSS VL: DIQMTQSPSSVSVSVGDRVTITCRASQGISSWLAWYQQKPGKAPKLLIYVASSLQSGVPSRFSGSGSGTDFTLTISSLQPEDFATYYCQQTNSFPLTFGGGTKVEIK	0.552	0.00203	3.68e+06	6	0.736	0.000963	1.31e+06	12	0.096	77	5.7e-10		83	122	0.002	2.3e-12			
